# Results taken from article doi:10.1101/2022.08.17.504349.
# Target: RGA5-HMA5 labeled with NT-647 (MST) (rice) (UniProt F7J0N2)
# Assay: MST
substance,measurement,value
"AVR-PikD, recombinant (MST and HDX-MS) (natural protein)",Kd,12 µM
